Reference: patent US20180371086A1 (Gilead, published 2018)
Substitutions are numbered along the chain they refer to.

What was measured:
[1] = molecular target: gp120 (HT593) expressed on human embryonic kidney (HEK) cells (HIV-1); assay: cell-based or functional assay
[2] = molecular target: HIV-1 Env of the lab adapted HIV-1 BaL strain (HIV-1); assay: cell-based or functional assay
[3] = molecular target: HIV-1 Env of subtype B isolate 93HT593 (HIV-1); assay: cell-based or functional assay
[4] = molecular target: HIV-1 Env of subtype B isolate 92US657 (HIV-1); assay: cell-based or functional assay
[5] = molecular target: HIV-1 Env of subtype B isolate 92US712 (HIV-1); assay: cell-based or functional assay
[6] = molecular target: HIV-1 Env of subtype B isolate 92US727 (HIV-1); assay: cell-based or functional assay
[7] = molecular target: T1, Human FcRn (human, UniProt P55899 24-297; P61769 21-119); assay: ELISA, FcRn coated on plate; pH 7.0/6.0 ratio against that of PGT121
T1 construct: also called neonatal Fc receptor
T1 sequence (P55899 24-297 limits assumed, chain 1 of 2): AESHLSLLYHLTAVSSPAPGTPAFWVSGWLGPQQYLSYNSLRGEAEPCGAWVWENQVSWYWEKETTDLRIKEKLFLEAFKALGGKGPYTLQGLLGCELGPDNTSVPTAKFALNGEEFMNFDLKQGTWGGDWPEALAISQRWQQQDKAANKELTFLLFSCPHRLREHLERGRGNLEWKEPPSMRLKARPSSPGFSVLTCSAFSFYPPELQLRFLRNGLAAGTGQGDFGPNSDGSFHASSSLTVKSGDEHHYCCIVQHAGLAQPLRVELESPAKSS
T1 sequence (P61769 21-119 limits assumed, chain 2 of 2): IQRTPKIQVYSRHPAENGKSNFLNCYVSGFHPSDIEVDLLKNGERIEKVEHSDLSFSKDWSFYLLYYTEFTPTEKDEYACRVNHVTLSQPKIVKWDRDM
Description: (§1) The binding of antibodies to FcRn of various antibody variants at different pHs was determined. A 96-well Maxisorp plate was coated with 100 ul of 5 μg/ml FcRn. The plate was incubated overnight at 4° C., and then blocked with 4% skim milk for 2 hr at room temperature after washing 3 times with 0.05% Tween 20 washing buffer. […] The plate was then washed 3 times and 100 μL of Fab-anti-human Fab-HRP or Goat anti-human IgG-HRP secondary antibody diluted in 4% skimmed milk was added. Plates were then incubated 50 min at room temperature, washed three times, and 100 μL fresh TMB substrate was added. Plates were developed for 3 minutes on bench with gentle shaking. Plate was quenched with 100 μL 1M HCl, shaken briefly, read at A450 on a spectramax m5 plate reader.

[8] = molecular target: T1, Human FcRn; assay: ELISA, FcRn coated on plate, pH 7.0
Description: as §1

[9] = molecular target: T1, Human FcRn; assay: ELISA, FcRn coated on plate, pH 6.0
Description: as §1

[10] = molecular target: T1, Human FcRn; assay: ELISA, FcRn coated on plate; ratio of EC50 at pH 7.0 to pH 6.0
Description: as §1

[11] = molecular target: T2, HIV-1 Env gp120 of virus WITO, on infected cells (HIV-1); assay: cell-based or functional assay
[12] = molecular target: HIV-1 Env gp120 of virus CH058, on infected cells (HIV-1); assay: cell-based or functional assay
[13] = molecular target: HIV-1 Env gp120 of virus 92US727, on infected cells (HIV-1); assay: cell-based or functional assay
[14] = molecular target: HIV-1 Env gp120 of virus 7552, on infected cells (HIV-1); assay: cell-based or functional assay
[15] = molecular target: T2, HIV-1 Env gp120 of virus WITO, on …; assay: cell-based or functional assay; remark: listed apart in the source
[16] = molecular target: HIV-1 Env gp120 of virus 7015, on infected cells (HIV-1); assay: cell-based or functional assay
[17] = molecular target: HIV-1 Env gp120 of virus 1489, on infected cells (HIV-1); assay: cell-based or functional assay

B1: Variant 2 (DS -> DF) (antibody, human IgG1, lambda, V domains shown)
VH: QMQLQESGPGLVKPSETLSLTCSVSGASISDSYWSWIRRSPGKGLEWIGYVHKSGDTNYNPSLKSRVHLSLDTSKNQVSLSLTGVTAADSGKYYCARTLHGRRIYGIVAFNEWFTYFYMDVWGTGTQVTVSS
VL: SDISVAPGETARISCGEKSLGSRAVQWYQHRAGQAPSLIIYNNQDRPSGIPERFSGSPDFRPGTTATLTITSVEAGDEADYYCHIWDSRVPTKWVFGGGTTLTVLG
- % ADCC Activity (ADCC reporter cell based assay; sample stressed at 25° C. for 4 weeks, relative to its untreated control) [1]: 96%

B2: Variant 3 (DS->DT) (antibody, human IgG1, lambda, V domains shown)
VH: B1 VH
VL: B1 VL with F60T
- % ADCC Activity (ADCC reporter cell based assay; sample stressed at 25° C. for 4 weeks, relative to its untreated control) [1]: 104%

B3: Variant 1 (DS -> DY) (antibody, human IgG1, lambda, V domains shown)
VH: B1 VH
VL: B1 VL with F60Y
- % ADCC Activity (ADCC reporter cell based assay; sample stressed at 25° C. for 4 weeks, relative to its untreated control) [1]: 100%

B4: Variant 4 (DS->GS) (antibody, human IgG1, lambda, V domains shown)
VH: B1 VH
VL: B1 VL with D59G, F60S
- % ADCC Activity (ADCC reporter cell based assay; sample stressed at 25° C. for 4 weeks, relative to its untreated control) [1]: 95%

B5: PGT121.56 (antibody, human IgG1, lambda)
heavy: QMQLQESGPGLVKPSETLSLTCSVSGASISDSYWSWIRRSPGKGLEWIGYVHKSGDTNYSPSLKSRVNLSLDTSKNQVSLSLVAATAADSGKYYCARTLHGRRIYGIVAFNEWFTYFYMDVWGNGTQVTVSSASTKGPSVFPLAPSSKSTSGGTAALGCLVKDYFPEPVTVSWNSGALTSGVHTFPAVLQSSGLYSLSSVVTVPSSSLGTQTYICNVNHKPSNTKVDKKVEPKSCDKTHTCPPCPAPELLAGPDVFLFPPKPKDTLMISRTPEVTCVVVDVSHEDPEVKFNWYVDGVEVHNAKTKPREEQYNSTYRVVSVLTVLHQDWLNGKEYKCKVSNKALPLPEEKTISKAKGQPREPQVYTLPPSREEMTKNQVSLTCLVKGFYPSDIAVEWESNGQPENNYKTTPPVLDSDGSFFLYSKLTVDKSRWQQGNVFSCSVLHEALHSHYTQKSLSLSPGK
light: not shown
- Neutralization potency, IC50 [2]: 0.02 µg/mL
- Neutralization potency, IC50 [3]: 0.164 µg/mL
- Neutralization potency, IC50 [4]: 0.142 µg/mL
- Neutralization potency, IC50 [5]: 0.019 µg/mL
- Neutralization potency, IC50 [6]: 0.011 µg/mL

B6: PGT121.56 (antibody, human IgG1, lambda)
heavy: B5 heavy
light: not shown
- Fold vs PGT121 [7]: 7 fold
- EC50 [8]: 102 nM
- EC50 [9]: 0.47 nM
- Ratio pH 7.0/6.0 [10]: 217

B7: Exemplary gp120×CD3 Duobody® (bispecific antibody, human IgG1, lambda)
heavy 1: QMQLQESGPGLVKPSETLSLTCSVSGASISDSYWSWIRRSPGKGLEWIGYVHKSGDTNYNPSLKSRVHLSLDTSKNQVSLSLTGVTAADSGKYYCARTLHGRRIYGIVAFNEWFTYFYMDVWGTGTQVTVSSASTKGPSVFPLAPSSKSTSGGTAALGCLVKDYFPEPVTVSWNSGALTSGVHTFPAVLQSSGLYSLSSVVTVPSSSLGTQTYICNVNHKPSNTKVDKRVEPKSCDKTHTCPPCPAPEFEGGPSVFLFPPKPKDTLMISRTPEVTCVVVAVSHEDPEVKFNWYVDGVEVHNAKTKPREEQYNSTYRVVSVLTVLHQDWLNGKEYKCKVSNKALPAPIEKTISKAKGQPREPQVYTLPPSREEMTKNQVSLTCLVKGFYPSDIAVEWESNGQPENNYKTTPPVLDSDGSFFLYSRLTVDKSRWQQGNVFSCSVMHEALHNHYTQKSLSLSPGK
light 1: not shown
heavy 2: not shown
light 2: not shown
- killing EC50; HIV-infected CD4 T cells (WITO); effector cells Eff Memory CD4 [11]: 0.02 µg/mL
- killing EC50; HIV-infected CD4 T cells (WITO); effector cells Memory CD4 [11]: 0.02 µg/mL
- killing EC50; HIV-infected CD4 T cells (WITO); effector cells Memory CD8 [11]: 0.02 µg/mL
- killing EC50; HIV-infected CD4 T cells (WITO); effector cells Naïve CD4 [11]: 0.03 µg/mL
- killing EC50; HIV-infected CD4 T cells (WITO); effector cells γ Δ CD4 [11]: 0.09 µg/mL
- Potency (IC50) of killing HIV-infected cells; PBMC-derived effector cells; donor 1003277; virus CHO58 [12]: 0.002 µg/mL
- Potency (IC50) of killing HIV-infected cells; PBMC-derived effector cells; donor 1004344; virus CHO58 [12]: 0.001 µg/mL
- Potency (IC50) of killing HIV-infected cells; tonsil-derived effector cells; donor 1003277; virus CHO58 [12]: 0.024 µg/mL
- Potency (IC50) of killing HIV-infected cells; tonsil-derived effector cells; donor 1004344; virus CHO58 [12]: 0.031 µg/mL
- Potency (IC50) of killing HIV-infected cells; PBMC-derived effector cells; donor 1004344; virus 92US727 [13]: 0.012 µg/mL
- Potency (IC50) of killing HIV-infected cells; tonsil-derived effector cells; donor 1004344; virus 92US727 [13]: 0.051 µg/mL
- killing EC50; HIV-infected CEM-NKr-CCR5-LucR CD4 T cells; PBMC donor 4176; virus 7552 [14]: 0.038 µg/mL
- killing EC50; HIV-infected CEM-NKr-CCR5-LucR CD4 T cells; PBMC donor 4288; virus 7552 [14]: 0.003 µg/mL
- killing EC50; HIV-infected CEM-NKr-CCR5-LucR CD4 T cells; PBMC donor 4176; virus WITO [15]: 0.248 µg/mL
- killing EC50; HIV-infected CEM-NKr-CCR5-LucR CD4 T cells; PBMC donor 4288; virus WITO [15]: 0.046 µg/mL
- killing EC50; HIV-infected CEM-NKr-CCR5-LucR CD4 T cells; PBMC donor 4176; virus 7015 [16]: 1.04 µg/mL
- killing EC50; HIV-infected CEM-NKr-CCR5-LucR CD4 T cells; PBMC donor 4288; virus 7015 [16]: 0.446 µg/mL
- killing EC50; HIV-infected CEM-NKr-CCR5-LucR CD4 T cells; PBMC donor 4176; virus 1489 [17]: 0.028 µg/mL
- killing EC50; HIV-infected CEM-NKr-CCR5-LucR CD4 T cells; PBMC donor 4288; virus 1489 [17]: 0.005 µg/mL
